In patent publication US7745587 (DYAX, dated 2010):

Key:
human MMP-14 = human MMP-14 (human, UniProt P50281 112-541, limits assumed); assay: cell-based or functional assay
MMP-24 = MMP-24 (human, UniProt Q9Y5R2 156-328, limits assumed); assay: cell-based or functional assay
MMP-24, sequence (Q9Y5R2 156-328 limits assumed): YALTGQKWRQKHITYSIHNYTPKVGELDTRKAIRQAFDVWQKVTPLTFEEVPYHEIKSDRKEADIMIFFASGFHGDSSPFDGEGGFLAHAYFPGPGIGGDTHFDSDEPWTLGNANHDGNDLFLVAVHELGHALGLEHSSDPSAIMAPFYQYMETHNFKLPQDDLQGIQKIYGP

Row | Binder | IC50 of MMP-14 inhibition (MMP-14 at 2 pM), Fab (human MMP-14) | IC50 of MMP-14 inhibition (MMP-14 at 2 pM), IgG (human MMP-14) | MMP-24 activity, 100 nM final Fab with 5 nM MMP-24 (MMP-24)
1 | M0031-F01 Fab (Fab, V domains shown) VH: EVQLLESGGGLVQPGGSLRLSCAASGFTFSTYEMHWVRQAPGKGLEWVSSIYSSGGWTGYADSVKGRFTISRDNSKNTLYLQMNSLRAEDTAVYYCARSQQYYDFSSRYYGMDVWGQGTTVTVSS VL: QSELTQPPSVSGTPGQRVTISCSGTSANIGRNAVHWYQQLPGTAPKLLIHSNNRRPSGVPDRFSGSKSGTSASLAISGLQSEDEADYYCAAWENSLNAFYVFGTGTKVTVL | 25.3 nM | – | –
2 | M0031-F01 IgG (antibody, V domains shown) VH: EVQLLESGGGLVQPGGSLRLSCAASGFTFSTYEMHWVRQAPGKGLEWVSSIYSSGGWTGYADSVKGRFTISRDNSKNTLYLQMNSLRAEDTAVYYCARSQQYYDFSSRYYGMDVWGQGTTVTVSS VL: QSELTQPPSVSGTPGQRVTISCSGTSANIGRNAVHWYQQLPGTAPKLLIHSNNRRPSGVPDRFSGSKSGTSASLAISGLQSEDEADYYCAAWENSLNAFYVFGTGTKVTVL | – | 15.2 nM | –
3 | M0031-C02 Fab (Fab, V domains shown) VH: EVQLLESGGGLVQPGGSLRLSCAASGFTFSPYPMGWVRQAPGKGLEWVSSIVSSGGLTLYADSVKGRFTISRDNSKNTLYLQMNSLRAEDTAVYYCARGGRLYDILTGQGAPFDYWGQGTLVTVSS VL: DIQMTQSPLSLPVTPGEPASISCRSSQSLLHSNGYYYLDWYLQKPGQSPQLLIYLGSYRASGVPDRFSGSGSGTDFTLKISSVEAEDVGVYYCMQALQTPLTFGGGTRVDIK | 56 nM | – | 54 % inhibition
4 | M0031-C02 IgG (antibody, V domains shown) VH: EVQLLESGGGLVQPGGSLRLSCAASGFTFSPYPMGWVRQAPGKGLEWVSSIVSSGGLTLYADSVKGRFTISRDNSKNTLYLQMNSLRAEDTAVYYCARGGRLYDILTGQGAPFDYWGQGTLVTVSS VL: DIQMTQSPLSLPVTPGEPASISCRSSQSLLHSNGYYYLDWYLQKPGQSPQLLIYLGSYRASGVPDRFSGSGSGTDFTLKISSVEAEDVGVYYCMQALQTPLTFGGGTRVDIK | – | 8 nM | –
5 | M0037-C09 Fab (Fab, V domains shown) VH: EVQLLESGGGLVQPGGSLRLSCAASGFTFSHYEMFWVRQAPGKGLEWVSSISPSGGQTHYADSVKGRFTISRDNSKNTLYLQMNSLRAEDTAVYYCATDRTYYDFWSGYGPLWYWGQGTLVTVSS VL: DIQMTQSPLSLPVTLGESASVSCRSSQSLLHENGHNYLDWYLQKPGQSPQLLIYLGSNRASGVPDRFSGSGSGTDFTLKISRVEAEDVGVYYCMQSLKTPPTFGPGTKVEIK | 11.5 nM | – | 72 % inhibition
6 | M0040-A11 Fab (Fab, V domains shown) VH: EVQLLESGGGLVQPGGSLRLSCAASGFTFSHYVMFWVRQAPGKGLEWVSRIVPSGGATMYADSVKGRFTISRDNSKNTLYLQMNSLRAEDTAVYYCARDRPLYDSSGYVDYWGQGTLVTVSS VL: QSALTQPPSASGSPGQSVTISCTGTSSDVGAYNYVSWYQQHPDKAPKLIIYNVNERPSGVPDRFSGSKSGNTASLTVSGLQAEDEADYYCTSYAGSNKIGVSGTGTKVTVL | 23.2 nM | – | 58 % inhibition
7 | M0040-A11 IgG (antibody, V domains shown) VH: EVQLLESGGGLVQPGGSLRLSCAASGFTFSHYVMFWVRQAPGKGLEWVSRIVPSGGATMYADSVKGRFTISRDNSKNTLYLQMNSLRAEDTAVYYCARDRPLYDSSGYVDYWGQGTLVTVSS VL: QSALTQPPSASGSPGQSVTISCTGTSSDVGAYNYVSWYQQHPDKAPKLIIYNVNERPSGVPDRFSGSKSGNTASLTVSGLQAEDEADYYCTSYAGSNKIGVSGTGTKVTVL | – | 6.7 nM | –
8 | M0038-F01 Fab (Fab, V domains shown) VH: EVQLLESGGGLVQPGGSLRLSCAASGFTFSLYSMNWVRQAPGKGLEWVSSIYSSGGSTLYADSVKGRFTISRDNSKNTLYLQMNSLRAEDTAVYYCARGRAFDIWGQGTMVTVSS VL: DIQMTQSPSSLSAFVGDKVTITCRASQSVGTYLNWYQQKAGKAPELLIYATSNLRSGVPSRFSGSGSGTDFTLTINTLQPEDFATYYCQQSYSIPRFTFGPGTKVDIK | 3.8 nM | – | –
9 | M0043-G02 Fab (Fab, V domains shown) VH: EVQLLESGGGLVQPGGSLRLSCAASGFTFSWYPMFWVRQAPGKGLEWVSGIYSSGGPTDYADSVKGRFTISRDNSKNTLYLQMNSLRAEDTAVYYCAKDTLGRYYDFWSGYSYGMDVWGQGTTVTVSS VL: DIQMTQSPGTLSLSPGERATLSCRASQSVSSSYLAWYQQKPGQAPRLLIYGASSRATGIPDRFSGSGSGTDFTLTISRLEPEDFAVYYCQSGVTFGGGTKVEIK | 9.3 nM | – | 74 % inhibition
10 | M0038-E06 Fab (Fab, V domains shown) VH: EVQLLESGGGLVQPGGSLRLSCAASGFTFSPYVMHWVRQAPGKGLEWVSSISPSGGWTYYADSVKGRFTISRDNSKNTLYLQMNSLRAEDMAVYYCARGTGAYGMDVWGQGTTVTVSS VL: DIQMTQSPGTLSLSPGDRATLSCGASQLVVSNYIAWYQQKPGQAPRLLMYAGSIRATGIPDRFSGSGSGTDFTLTISRLEPEDFAIYYCQQRSNWPWTFGQGTKVEIK | 16.6 nM | – | –
11 | M0038-E06 IgG (antibody, V domains shown) VH: EVQLLESGGGLVQPGGSLRLSCAASGFTFSPYVMHWVRQAPGKGLEWVSSISPSGGWTYYADSVKGRFTISRDNSKNTLYLQMNSLRAEDMAVYYCARGTGAYGMDVWGQGTTVTVSS VL: DIQMTQSPGTLSLSPGDRATLSCGASQLVVSNYIAWYQQKPGQAPRLLMYAGSIRATGIPDRFSGSGSGTDFTLTISRLEPEDFAIYYCQQRSNWPWTFGQGTKVEIK | – | 7.2 nM | –
12 | M0039-H08 Fab (Fab, V domains shown) VH: EVQLLESGGGLVQPGGSLRLSCAASGFTFSAYNMGWVRQAPGKGLEWVSSISSSGGYTGYADSVKGRFTISRDNSKNTLYLQMNSLRAEDTAVYYCARDLYRGFDYWGQGTLVTVSS VL: DIQMTQSPATLSVSPGERATLSCRASESVKNNLAWYQQKPGQAPRLLIYGVSTRAPGIPARFSGSGSGTDFTLTISSLEPEDFAVYYCQQRSNWPPVTFGQGTRLEIK | 23 nM | – | –
13 | M0039-H08 IgG (antibody, V domains shown) VH: EVQLLESGGGLVQPGGSLRLSCAASGFTFSAYNMGWVRQAPGKGLEWVSSISSSGGYTGYADSVKGRFTISRDNSKNTLYLQMNSLRAEDTAVYYCARDLYRGFDYWGQGTLVTVSS VL: DIQMTQSPATLSVSPGERATLSCRASESVKNNLAWYQQKPGQAPRLLIYGVSTRAPGIPARFSGSGSGTDFTLTISSLEPEDFAVYYCQQRSNWPPVTFGQGTRLEIK | – | 7.4 nM | –
14 | M0038-F08 Fab (Fab, V domains shown) VH: EVQLLESGGGLVQPGGSLRLSCAASGFTFSRYKMWWVRQAPGKGLEWVSGIRPSGGLTRYADSVKGRFTISRDNSKNTLYLQMNSLRAEDTAVYYCARRGDYVGGFDYWGQGTLVTVSS VL: DIQMTQSPGTLSLSPGERATLSCRASQSVSSSYLAWYQQKPGQAPRLLIYGASSRATGIPDRFSGSGSGTDFTLTISRLEPEDFAVYYCQHYGGSQAFGGGTKVEIK | 31.1 nM | – | –
15 | M0038-F08 IgG (antibody, V domains shown) VH: EVQLLESGGGLVQPGGSLRLSCAASGFTFSRYKMWWVRQAPGKGLEWVSGIRPSGGLTRYADSVKGRFTISRDNSKNTLYLQMNSLRAEDTAVYYCARRGDYVGGFDYWGQGTLVTVSS VL: DIQMTQSPGTLSLSPGERATLSCRASQSVSSSYLAWYQQKPGQAPRLLIYGASSRATGIPDRFSGSGSGTDFTLTISRLEPEDFAVYYCQHYGGSQAFGGGTKVEIK | – | 23 nM | –
16 | M0037-D01 Fab (Fab, V domains shown) VH: EVQLLESGGGLVQPGGSLRLSCAASGFTFSMYMMIWVRQAPGKGLEWVSSIYPSGGNTMYADSVKGRFTISRDNSKNTLYLQMNSLRAEDTAVYYCATGVLRYFDWDAGSGMDVWGQGTTVTVSS VL: DIQMTQSPSSLSASVGDRVTITCRASQGIRNDLGWYQQKPGKAPKRLIYVASSLQSGVPSRFSGSGSGTEFTLTISSLQPEDFATYYCLQHNSYPWTFGQGTKVEIK | 4.3 nM | – | –
17 | M0040-A06 Fab (Fab, V domains shown) VH: EVQLLESGGGLVQPGGSLRLSCAASGFTFSYYGMYWVRQAPGKGLEWVSSISSSGGYTDYADSVKGRFTISRDNSKNTLYLQMNSLRAEDTAVYYCARRIKYYDIEGEGAFDIWGQGTMVTVSS VL: DIVMTQTPPSLPVNPGEPASISCRSSQSLLHRNGYNYLDWYLQKPGQSPQLLIHLGSYRASGVPDRFSGSGSGTDFTLKISRVEAEDVGVYYCMQPLQTPFTFGPGTKVDIK | 8.6 nM | – | 65 % inhibition
18 | M0040-A06 IgG (antibody, V domains shown) VH: EVQLLESGGGLVQPGGSLRLSCAASGFTFSYYGMYWVRQAPGKGLEWVSSISSSGGYTDYADSVKGRFTISRDNSKNTLYLQMNSLRAEDTAVYYCARRIKYYDIEGEGAFDIWGQGTMVTVSS VL: DIVMTQTPPSLPVNPGEPASISCRSSQSLLHRNGYNYLDWYLQKPGQSPQLLIHLGSYRASGVPDRFSGSGSGTDFTLKISRVEAEDVGVYYCMQPLQTPFTFGPGTKVDIK | – | 1.7 nM | –
19 | M0033-H07 Fab (Fab, V domains shown) VH: EVQLLESGGGLVQPGGSLRLSCAASGFTFSVYGMVWVRQAPGKGLEWVSVISSSGGSTWYADSVKGRFTISRDNSKNTLYLQMNSLRAEDTALYYCARPFSRRYGVFDYWGQGTLVTVSS VL: DIQMTQSPSSLSASVGDRVTITCRASQGIRNFLAWYQQKPGKVPKLLVFGASALQSGVPSRFSGSGSGTDFTLTISGLQPEDVATYYCQKYNGVPLTFGGGTKVEIK | 11.5 nM | – | –
